The source of these data is patent US20240117030A1 (Pfizer, published 2024).

For assay [1], the target named is T1, recombinant human IL-33 (R&D Systems 3625-IL), reduced with DTT (human, UniProt O95760 112-270, limits assumed).
T1 sequence (looked up): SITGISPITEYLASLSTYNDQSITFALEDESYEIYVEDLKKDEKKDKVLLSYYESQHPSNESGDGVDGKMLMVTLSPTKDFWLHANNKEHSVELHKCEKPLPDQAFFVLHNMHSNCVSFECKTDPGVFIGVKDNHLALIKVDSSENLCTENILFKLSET
The assay can be described thus: cell-based or functional assay.

The next assay has as its target T2, human IL-4 (human, UniProt P05112 25-153).
T2 sequence (looked up): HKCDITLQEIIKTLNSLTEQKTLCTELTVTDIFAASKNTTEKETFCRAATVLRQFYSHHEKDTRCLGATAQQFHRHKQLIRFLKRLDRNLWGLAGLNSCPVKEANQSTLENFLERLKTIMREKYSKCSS
The assay can be described thus: cell-based or functional assay.

Substitutions are numbered along the chain they refer to.

B1: IL33-0713 (antibody, IgG1, V domains shown)
VH: EVQLVESGGGLVQPGGSLRLSCAASGFTFSSYWMYWVRQAPGKGLEWVAAITPNKGVDYYPESVKGRFTISRDNAKNSLYLQMNSLRAEDTAVYYCARGHYYYTSYSLGYWGQGTLVTVSS
VL: DIQMTQSPSSLSASVGDRVTITCRASQPISKHLDWYQQKPGKAPKLLIYFTKNLVTGVPSRFSGSGSGTDFTLTISSLQPEDFATYYCFQYNQGWTFGGGTKVEIK
For B1, in assay [1], the “IC50 [nM] versus reduced human IL-33 (R&D), IC50 (AVE)” value was 0.012 nM.

B2: IL33-0715 (antibody, IgG1, V domains shown)
VH: B1 VH
VL: B1 VL with V55Q, T56S
Regarding B2, in assay [1], the “IC50 [nM] versus reduced human IL-33 (R&D), IC50 (AVE)” value turned out to be 0.012 nM.

B3: IL33-0714 (antibody, IgG1, V domains shown)
VH: B1 VH
VL: B1 VL with V55K
B3: the “IC50 [nM] versus reduced human IL-33 (R&D), IC50 (AVE)” value in assay [1] was found to be 0.009 nM.

B4: IL13433-0607 (trispecific antibody, human IgG1, kappa)
heavy: EVQLVESGGGLVQPGGSLRLSCAASGFTFSSYAMSWVRQAPGKGLEWVASISTGDTTYYPDSVKGRFTISRDNAKNSLYLQMNSLRAEDTAVYYCARNEGYYFGLTQWGRGTLVTVSSASTKGPSVFPKAPSSKSTSGGTAALGCLVKDYFPEPVTVSWNSGALTSGVHTFPAVLQSSGLYSLSSSVTVPSSSLGTQTYICNVNHKPSNTKVDKKVEPKSCDKTHTCPPCPAPEAAGAPSVFLFPPKPKDTLMISRTPEVTCVVVDVSHEDPEVKFNWYVDGVEVHNAKTKPREEQYNSTYRVVSVLTVLHQDWLNGKEYKCKVSNKALPAPIEKTISKAKGQPREPQVCTLPPSREEMTKNQVSLWCLVKGFYPSDIAVEWESNGQPENNYKTTPPVLDSDGSFFLYSKLTVDKSRWQQGNVFSCSVLHEALHSHYTQKSLSLSPGK
chain 1: DIQMTQSPSSLSASVGDRVTITCRASQPISKHLDWYQQKPGKAPKLLIYFTNNLQTGVPSRFSGSGSGTDFTLTISSLQPEDFATYYCFQYNQGWTFGGGTKVEIKRTVAAPSVFIFPPSDEQLKSGTASVVCLLNNFYPREAKVQWKVDNALQSGNSQESVTEQDSKDSTYSLSSTLTLSKADYEKHKVYACEVTHQGLSSPVTKSFNRGECGGGGSEVTLRESGPALVKPTQTLTLTCTFSGFSLSNFGEGLSWIRQPPGKGLEWLAHIYWDDDKRYSTSLKTRLTISKDTSRNQVVLTMTNMDPVDTATYYCARRETVFYWYFDVWGQGTTVTVSSASTKGPSVFPEAPSSKSTSGGTAALGCLVKDYFPEPVTVSWNSGALTSGVHTFPAVLQSSGLYSLGSVVTVPSSSLGTQTYICNVNHKPSNTKVDKKVEPKSCDKTHTCPPCPAPEAAGAPSVFLFPPKPKDTLMISRTPEVTCVVVDVSHEDPEVKFNWYVDGVEVHNAKTKPREEQYNSTYRVVSVLTVLHQDWLNGKEYKCKVSNKALPAPIEKTISKAKGQPREPQVYTLPPCREEMTKNQVSLSCAVKGFYPSDIAVEWESNGQPENNYKTTPPVLDSDGSFFLVSKLTVDKSRWQQGNVFSCSVLHEALHSHYTQKSLSLSPGK
light 1: DIQMTQSPSSLSASVGDRVTITCRASESVDHFGWSLVHWYQQKPGKAPKLLIYRADSLETGVPSRFSGSGSGTDFTLTISSLQPEDFATYYCQQSNEDPWTFGGGTKVEIKRTVAAPSVFIFPPSDEQLKSGTASVSCLLNNFYPREAKVQWKVDNALQSGNSQESVTEQDSKDSTYSLDSTLTLSKADYEKHKVYACEVTHQGLSSPVTKSFNRGEC
light 2: DIQMTQSPSSLSASVGDRVTITCRASQSVDEEGDSYMNWYQQKPGKAPKLLIYAASNLESGVPSRFSGSGSGTDFTLTISSLQPEDFATYYCQQSHKDPPTFGGGTKVEIKRTVAAPSVFIFPPSDEQLKSGTASVSCLLNNFYPREAKVQWKVDNALQSGNSQESVTEQDSKDSTYSLKSTLTLSKADYEKHKVYACEVTHQGLSSPVTKSFNRGEC
chain 2: EVQLVESGGGLVQPGGSLRLSCAASGFTFSSYWMYWVRQAPGKGLEWVAAITPNAGEDYYPESVKGRFTISRDNAKNSLYLQMNSLRAEDTAVYYCARGHYYYTSYSLGYWGQGTLVTVSSASTKGPSVFPLAPSSKSTSGGTAALGCLVKDYFPEPVTVSWNSGALTSGVHTFPAVLQSSGLYSLSSVVTVPSSSLGTQTYICNVNHKPSNTKVDKKVEPKSC
For B4, the “fold loss in IL-4 neutralization (CD23 bioassay) relative to IL13433-0006” value with human IL-4 was around 6.5 fold.
